Test results taken from US20250270305A1 (OSAKA UNIVERSITY, published 2025).

Key:
[1] = biological target: T1, recombinant human Netrin-4 (human, UniProt Q9HB63 19-628, limits assumed); assay: ELISA screening of hybridoma culture supernatant
T1 sequence: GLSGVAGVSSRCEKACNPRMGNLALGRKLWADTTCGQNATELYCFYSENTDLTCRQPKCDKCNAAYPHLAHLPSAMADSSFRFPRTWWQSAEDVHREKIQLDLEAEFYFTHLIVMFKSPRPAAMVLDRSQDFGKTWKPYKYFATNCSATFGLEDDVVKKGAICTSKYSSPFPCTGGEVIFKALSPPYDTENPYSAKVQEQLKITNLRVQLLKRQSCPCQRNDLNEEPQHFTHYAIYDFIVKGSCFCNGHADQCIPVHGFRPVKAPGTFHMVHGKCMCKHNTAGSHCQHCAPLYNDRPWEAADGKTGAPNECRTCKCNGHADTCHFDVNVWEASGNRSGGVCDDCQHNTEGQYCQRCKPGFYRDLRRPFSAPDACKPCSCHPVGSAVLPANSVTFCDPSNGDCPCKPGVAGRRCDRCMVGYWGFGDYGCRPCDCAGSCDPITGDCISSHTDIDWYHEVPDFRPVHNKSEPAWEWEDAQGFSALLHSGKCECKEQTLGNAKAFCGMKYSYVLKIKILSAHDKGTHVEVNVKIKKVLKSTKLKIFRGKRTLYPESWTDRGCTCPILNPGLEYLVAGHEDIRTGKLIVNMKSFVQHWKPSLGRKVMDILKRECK
Description: (§1) Four mice were immunized with the epitope peptide. After four immunizations, the blood was collected to determine the antibody titers using ELISA against recombinant human Netrin-4 and TGGEVIFKALS peptide. Mouse lymphocytes with increased antibody titers were fused with myeloma cells, and cultured in HAT medium to produce hybridomas. About ten days after cell fusion, antibody production in the culture supernatant was screened by ELISA (against recombinant human Netrin-4 and TGGEVIFKALS peptide), and 95 positive wells were selected. Primary cloning was then performed by limiting dilution, followed by screening by ELISA (against recombinant human Netrin-4 and TGGEVIFKALS peptide). Secondary cloning was then performed by limiting dilution, followed by screening by ELISA (against recombinant human Netrin-4 and TGGEVIFKALS peptide). A single clone was selected. The selected clone was expanded, and cultured at a high density in a serum-free medium. The culture medium was collected and purified on a protein A column to produce IgG. Purity was measured using AKTA-FPLC, and the titer was measured by ELISA. IgG was further purified with low endotoxin levels and used for the subsequent experiments.

[2] = biological target: T2, TGGEVIFKALS peptide (amino acid residues 192 to 202 of human Netrin-4) (human); assay: ELISA screening of hybridoma culture supernatant
T2 construct: The immunogen was C-Ahx-TGGEVIFKALS linked to bovine thyroglobulin; The ELISA antigen is named only as the TGGEVIFKALS peptide
T2 peptide: TGGEVIFKALS
Description: as §1

binding result [1]: binds
binding result [2]: binds
B1: anti-Netrin-4 monoclonal antibody produced by the hybridoma cell line Human Netrin-4 (192-202)-6A1 (Accession No. NITE BP-03603) (antibody, V domains shown)
VH: QVQLHQSGPELVRPGASVTLSCKASGYTFTDYEMHWVKQTPVHGLEWIGAIDPETGDTVYNQKFKGKATLTADKSSSTAYMELSSLTSEDSAVYYCVDGFSDHYWGQGTTLTVSS
VL: VLVLTQTPLSLPVRLGDRASISCRSSQSLVHSSGNTFLHWYLQKPGQSPKLLIYKVSSRFSGVPDRFSGSGSGTDFTLKISRMEAEDLGVYFCSQSTHIPYTFGGGTKLEIKR
notes: In the ELISA screens the antibody was hybridoma culture supernatant
